Target: F-actin (actin from rabbit skeletal muscle, polymerised) (rabbit) (UniProt P68135)
Experiment: co-sedimentation; high-speed cosedimentation titration: constant 500 nM FL-HTT with increasing F-actin, 30 min RT; apparent constant (Kdapp); fit accounts for ligand depletion and incomplete saturation

**Q.** Which Kd does the source give for “recombinant human full-length wild-type HTT (21 glutamines), P42858 1-3142” here?
**A.** 0.236 µM

— paper PMC12448071
